Earlier results in article PMC5012295.

Target: Complement C4b (Homo sapiens) (UniProt P0C0L4)
Assay: AlphaScreen

Sequence of UniProt P0C0L4 (P0C0L4 20-675, chain 1 of 2): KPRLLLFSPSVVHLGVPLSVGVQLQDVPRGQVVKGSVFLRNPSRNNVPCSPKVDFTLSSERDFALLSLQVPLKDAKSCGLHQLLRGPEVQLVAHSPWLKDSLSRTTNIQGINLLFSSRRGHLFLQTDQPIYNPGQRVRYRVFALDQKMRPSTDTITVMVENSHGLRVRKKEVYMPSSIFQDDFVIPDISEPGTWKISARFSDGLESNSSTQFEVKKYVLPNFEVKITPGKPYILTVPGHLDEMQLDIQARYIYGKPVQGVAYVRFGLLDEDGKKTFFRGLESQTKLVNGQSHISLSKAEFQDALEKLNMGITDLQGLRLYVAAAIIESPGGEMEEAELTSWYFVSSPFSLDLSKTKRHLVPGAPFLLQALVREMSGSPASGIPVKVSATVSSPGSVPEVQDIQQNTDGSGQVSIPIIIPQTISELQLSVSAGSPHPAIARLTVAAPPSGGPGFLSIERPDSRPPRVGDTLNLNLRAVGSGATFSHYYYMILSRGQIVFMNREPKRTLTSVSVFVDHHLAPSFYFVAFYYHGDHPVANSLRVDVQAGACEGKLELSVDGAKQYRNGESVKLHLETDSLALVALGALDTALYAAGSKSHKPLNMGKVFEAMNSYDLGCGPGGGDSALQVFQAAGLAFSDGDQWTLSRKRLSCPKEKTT
Sequence of UniProt P0C0L4 (P0C0L4 20-675, chain 2 of 2): as the sequence (P0C0L4 20-675, chain 1 of 2) above

Row | Substance | Kd [nM]
1 | Eap34 domains 3-4 (from UniProt Q99QS1) | 525
2 | Eap (from UniProt Q99QS1) | 185
